This note sets out measurements from a protein production outcome set (Wang et al. 2014).

This data set can be described thus: label from the status in PepcDB records.
As for “MTRSQTRPRRQALAEILGLMGLLVAGGLLAGQGGQTLARSVGGLGGASAPMPSRPWHGSNHTPLPSRGDGMAALDHNLITAASIGDLDLVNRLLKAGASAQATDERGRTALLAAVYNRRGDVMLVLIQAGADVNRKDDEGNSPFLLAAATNQIDVVRLALSHGADLNSTDRYDGTALIAASQHGNVEIVKLLISAGVPVDRVNQLGWTALLEAIILGDGSSRYEDIVQALLDAGADANLADREGVTPSRHARERGYKTMVRMLMRARGH”, the protein production result is “failed”. Then “MQIQQMLENRIEELEMKIAFQEQLLDELNHALVQQQFDIDKMQVQLRYMANKLKDFQSSNIASQSEETPPPHY”, with “not failed”; and “MEEKKSSGMFAVFAALGANVLVAISKFIGFGLSGSAAMLNESIHSVVDCGNQILLLFGDRRSRQASTNLHQFGEARAKYFFSMIVATFLFFGGGVIGVMEAYDKLVHPAHSVENAGIVIGILLIGMAIEGSSLRVAFKEISELNTEKLPIFKFLHESRHSEILVIFAEDLCAIIGLLLALLGTVLTMVTGNPIFDAISGLLIGFLLMAAAIFLTREFYSLIVGERVTDSDLEKILTAFDRPEVERVINVKTVHLGPTEILIAAKIDLVSKLVLEDYEIINQIEAEIRKKISDKKCYIYIEIDEFVQGYVQSSDL”, with “failed”; and “MGEEEMPVHPDLEAFIESIPWHRHLGLKVLALHPGHARLVIPFQAGFTGNAARGALHGGIIASLADSCGNAALWTHFGPDDRIATINIGVDYFRPAPLADLMAEAEVRLLGNRIGNVHVRLAPLAEPSQTVAEGRTVCYVKRMSLEHHHHHH”, with “failed”. Next, “MDDAERERGPWHRNLIVLWFCTFVAGMAFSEIMPFLSLFVSQLGDFTKAQITFYSGLAFAADYAISAISAPLWGIIADKKGRKIMLLRASLGMAVAMGLMGFVTNVWQLVALRALQGVFAGFISNAQALVASQTPRKYSGRALSTLITGAVSGQLFGPVIGGLLAQLFSIRNTFFITAGLLMVAFLLSLFFVQEHFKPVAHHREPGDSRNPLAAFQNPRLIIVMLCSTAIVQFGNASIAPIISLYVRELMHYRGPITVVAGIIAALPGISNIFSAPRLGRYGDQHGSGKVLLFGYIFAVIMYFPQGIVTSVVALGILRFAIGISDGALYPEIQTVLTKNTPVHLTSTIFSYNQSFQAIGNMFGALLGGLVAGWFNYNAVFIMTALLLLINLGLILWLVPDIWKNGKRAVS”: “failed”. As to “MNDLTKGKPLKLIFWFTIPLLIGNIFQQFYSLSDTLIVGQTLGVKALAAVGSTGSVQFLIIGFAQGLTAGLSILTAQHFGARDFKAVRRSFAISIVVSLIVGIILTILSLIFVDHILLLMQTPTDIIADARTFLQIMLGGMLAPIAFNLLSNIIRALGDSRTPLWFLIISALINIGLELLFILVFKWGIAGASWATILAQTIATLMCVVYIIVKVPILHIGRRHFKLVWSEVKAHLNVGLPMAFQMSIIAIGTIVLQAALNSLGTNSVAATTAAQKIDQVATQPLMSFGVTMATFAAQNYGAHQYERIITGVKQTMWLSGSFSVAAGLIEIIWGKQLVGFFVGHQDMAVLNLSQTYFNVIGSTYILLSMLFIMRNTLQGLGRSAIPTLAGAAELFMRVFAALILVRIFDYAGACSSEPLAWLGSCAVLLPAYIKSVHDLRQQARMTNTVAEGAEPILNDSEKL”, the protein production result was “failed”. As for “MYAGRRDPSHVGIVMVGSPATATLILNDKVVVDLEGETLRLENGDAIALRPQAFAVLRHLVQNANRLVSKAELLEAVWGGAAVTDDSLVQCIHEIRRALGDERYAVLATVSRRGYRLSLERSDESALGGPSIAVLPFATMSGGEPNDYFADGLVEDIITNLSKIPGLFVIARNSSFGFRGEKADLRTIAAELRVRYLLQGSLRQSGGRLRIYAQLVDGASATHVWADRFEGAATDVFDLQDRLTEQIVGSIEPSVRRAEIERAHRKRPESLDAYDLYLRALPHAHANTPAQTDKALQLLARSIELQPDYVAAHGYAAWCYEQRYLRNGLDPADKAAALSHADIALGINSDDPQAMSIGAFVRANLTRDYDAAVEVLDRALAWNNNSTLAFGFSALVSAHSERHQRAVEHAHKALRLSPLDDPLSYHPYCALALTHLFAGAFADAARYAALAVRANPGFSIPYAYLAASHVGLGNVEAAHSAARRLIEVAPNFSVGGYVRTNLFQPYLMDALAAALRKAGLPE”, the protein production result is reported as “failed”. As to “MTIFEKNVIEFVTVAAEFCAFLERAEHMKRKAFVDTSLKILPLLYLKASLLPKCETIGDEAPETYVTEEIYEILRINLAGLMGEKDDYLDVFVQDMVYSDQPIKKSVSEDLADIYQDIKDFIFVFQLGLNETMNDSLAICQENFGLLWGQKLVNTLRALHDVKYLEHHHHHH”, the protein production entry is recorded as “failed”. For the sequence “MLHGKGCKKDVKIIVWSGLLFLCLAARALATGVVGYLPMSDGEYAQKRALKPLLTLPYSVSPDQTWHFRQVGVSGVTLLPEPKKDNEWRISGKDRAGNSWVVPVGRLINLAGNAQFYRADLDRNGIQDLVIWLGNPGLGLAPSAQYIIFTFLKNGRPCVFEPWGFYTATDTGVDDLLDLQGNGRTQLLDMQFDSGYWITNLYQVKDARWQRVHGWFGRLSYPALTRFNHYPGRKLIIKPIAGRNPQTDDLSLTQRCLIRGNVLPGVNQD”, the protein production result is “failed”. For “MSLTGNAQAATIADPSTLVVDTVGPVLTIGLNRPKKRNALNDGLMAALKDCLTDIPDQIRAVVIHGIGDHFSAGLDLSELRERDATEGLVHSQTWHRVFDKIQYCRVPVIAALKGAVIGGGLELACAAHIRVAEASAYYALPEGSRGIFVGGGGSVRLPRLIGVARMADMMLTGRVYSAAEGVVHGFSQYLIENGSAYDKALELGNRVAQNAPLTNFAVLQALPMIAEANPQTGLLMESLMATVAQSDQEAKTRIRAFLDHKTAKVREGHHHHHH”, the protein production result is “not failed”. Take “MRALIRYEDVPSKLWTLPKMTDFWGIGKRTEKRLNKLGISSIKELTNADPLLLKQKLGTIGLQHFFHANGIDESNVRLEHHHHHH”: the protein production entry is reported as “failed”. On to “MSLSEIKHWVFDMDGTLTIAVHDFAAIREALSIPAEDDILTHLAALPADESAAKHAWLLEHERDLAQGSRPAPGAVELVRELAGRGYRLGILTRNARELAHVTLEAIGLADCFAEADVLGRDEAPPKPHPGGLLKLAEAWDVSPSRMVMVGDYRFDLDCGRAAGTRTVLVNLPDNPWPELTDWHARDCAQLRDLLSAEGHHHHHH”, for which the protein production entry was “not failed”. “MKIVILGAGRVGSTVAESLASESNDITVVDLVRNRLSLLQERLDLRTVVGSASHPDIMIQAGMEDADMILALTGSDETNLVACKLAASMFNTPTRIARIRTVDYLDHPDIFSRENFCVDFAICPERILTKYIEKLIEFPGALQVLDFASGKVSLVAVKAIRGGPLIGRQLKELRRHVPNLDTRVAAIFRHNHPIIPEGSTIVEEGDEVFFIASSSDIRAVMGELRRMDKSVRRVMIAGGGRIGRRLAEVLQQSHQVRIIERDIKVCESLTQNLHNTLILHGNVTDEELLESENISEMDIFCALTDDEENNIMAALMAKRMGARKVIALINRSMYVDLMQDSGIDIAISPAQVTIGSLLAYVRQGDVAVVHSLRRGAAEALELVAHGDTRSSRVVGRKIEEIKLPRSTTIGAIVRGLPPGDVYRNLSEQEEDSILAQWKQAQVIIAHHDTVIEQNDHVILFVVNKKMVRQVEKLFQVNVGFL”: the protein production entry is on record as “failed”. Regarding “MRVHPDRGRTNLPPFKLRSSRSTYKALKEKANGDALTNAGDRSIFVPDGICQGKAAERCQKTRQRGVRSVKNLIVKIAAAALLVLAPAIAQAAEGYSTANVNMRAGPSTRYPAVAVIPAGSSVEIRGCLSNVNWCDVEFYGGRGWVSGQYVQAVYEQRRVYVGPQYYRPLGIPMVTFSVGNYWDRYYRGRDFYRERDRWSRGPDYYYRDRDYRDRDYRREYRDRDYQVREYRDRDRDRRDDARREERRREVRRDDDNRSSDFRDLPQFRGGKADTYNHPDPRASPFVCRPGDPSCGD”, the protein production result is recorded as “failed”. For the sequence “MVKDKNDVGPKTVAILGAGGKMGARITRKIHDSAHHLAAIEIAPEGRDRLQGMGIPLTDGDGWIDEADVVVLALPDNIIEKVAEDIVPRVRPGTIVLILDAAAPYAGVMPERADITYFIGHPCHPPLFNDETDPAARTDYHGGIAKQAIVCALMQGPEEHYAIGADICETMWSPVTRTHRVTTEQLAILEPGLSEMVAMPFVETMVHAVDECADRYGIDRQAALDFMIGHLNVEIAMWFGYSPKVPSDAALRLMEFAKDIVVKEDWREALNPAKVKQAAELIAGK”, the protein production result was “not failed”. In the case of “TQVADNEYLVQGRMLIDEFNEVFETDLHMSDVDTMAGYLITALGTIPDEGEKPSFEVGNIKLTAEEMEGTRLLVLRVHFYDEETVDEEPEENRRFFRKEMEDDEPRR”, the protein production result is “not failed”. As for “MRGPLSRPVCMKLGIDFGTSNSAAAAIVDGQVVPVRFGQALQFRTTVYFPETMRDPDDFSLTPALEYEVERLIDSGRRDALAAGRTPNNDSLRRDAIRIVRRQWMEEQVREPRSSAALLQNAVYGDEALDAYFLEGEGSLVQSPKSMLGYNLHPRARQTMTGIATHVLEHIRLTASRQFDINIRHATLGRPVQFRSSIGEAGNAQALEILQTAAIAAGFDSVDFLEEPAAAAMHYHVSHDSRHDTVVVDIGGGTTDVAHASVGGSAAPQVHRAWGIARGGTDIDLALSLAAYMPLFGRGITRVPTHHYVEAAMVQDMTRQREFRLHKYQDVPAPFDRRLQALQDTGNTARLYRGVEACKIALSELDRHQDALDFIERGLGVDVQAGALVASASNYLDELEGLLAQVRTEMATAPATVFLTGGMSRAGYIRDTVAAAFPESRLVHGDPSFGVVQGLAWAAAQDARLSDG”, the protein production entry is on record as “failed”. “LSDKLMERLKERAEGIFVSGPPGSGKSTFVAALAEFYRSQGKIVKTMESPRDLQVSKEITQYAPLEGDMEKTCDILLLVRPDYTIYDEVRKTRDFEIFADMRMAGVGMVGVVHASKPIDAIQRLIGRVELGVIPQVVDTVIFIKDGKIQKVYEIDFTVKVPYG”: the protein production entry was “failed”. Take “MGHHHHHHSHMADNMTTTQIEVGPGATNATINFEAGILECYERFSWQRALDYPGQDRLHRLKRKLESRIKTHNKSEPENKRMSLEERKAIGVKMMKVLLFMDPSAGIEGFEPY”: the protein production result is “not failed”.

Consider “MGHVSNSPFSVDVLVVGGGPAGSAAAIHAAKAGYSVLLIDAQPFPRDKTCGDGLTPRAVHQLEALGVDVTSRYRSFGLKLHGFGGSVTVPWPESHFGQVSSAMPRMKFDAMLWEMAAQHATTWTATASEVEIDSAIRSVTMSDGRVVKPRSVIVADGVRSTFGKLLGRTWHRGEVYGIAARSYCTTPRSTEPWMHSHLELRDDSTTLPGYGWIFPIGDGTANVGCGALSTDKRPAKINTKKLLRHYASQQTDWEFGTPQRVASALLPMGGAVSTIAGPNWMLIGDAAACVNPLNGEGIDYGLETAALAVAHLDNPLEWPHILRETYGEAFLLARTAARLLTYPQFLPLTGPIALRTPLMASAARLMGNLVTEEDKDIVARAWRAAGWGVTKIRGGSPLWDLEHHHHHH”, for which the protein production entry is “failed”.

Take “MALLCYNRGCGQRFDPETNSDDACTYHPGVPVFHDALKGWSCCKRRTTDFSDFLSIVGCTKGRHNSEKPPEPVKPEVKTTEKKELCELKPKFQEHIIQAPKPVEAIKRPSPDEPMTNLELKISASLKQALDKLKLSSGNEENKKEEDNDEIKIGTSCKNGGCSKTYQGLESLEEVCVYHSGVPIFHEGMKYWSCCRRKTSDFNTFLAQEGCTKGKHMWTKKDAGKKVVPCRHDLHQTGGEVTISVYAKNSLPELSRVEANSTLLNVIIVFEGEKEFDQNVKLWGVIDVKRSYVTMTATKIEITMRKAEPMQWASLELPAAKKQEKQKDDTTD”: the protein production entry is “not failed”.

On to “AIASSAPAPGPAPASLTLWDEEDFQGRRCRLLSDCANVCERGGLPRVRSVKVENGVWVAFEYPDFQGQQFILEKGDYPRWSAWSGSSSHNSNQLLSFRPVLCANHNDSRVTLFEGDNFQGCKFDLVDDYPSLPSMGWASKDVGSLKVSSGAWVAYQYPGYRGYQYVLERDRHSGEFCTYGELGTQAHTGQLQSIRRVQH”, for which the protein production entry was “failed”.
